For the data set, the target named is T1, mini-cellulose-binding protein A (mCbpA), P38058.
T1 chain: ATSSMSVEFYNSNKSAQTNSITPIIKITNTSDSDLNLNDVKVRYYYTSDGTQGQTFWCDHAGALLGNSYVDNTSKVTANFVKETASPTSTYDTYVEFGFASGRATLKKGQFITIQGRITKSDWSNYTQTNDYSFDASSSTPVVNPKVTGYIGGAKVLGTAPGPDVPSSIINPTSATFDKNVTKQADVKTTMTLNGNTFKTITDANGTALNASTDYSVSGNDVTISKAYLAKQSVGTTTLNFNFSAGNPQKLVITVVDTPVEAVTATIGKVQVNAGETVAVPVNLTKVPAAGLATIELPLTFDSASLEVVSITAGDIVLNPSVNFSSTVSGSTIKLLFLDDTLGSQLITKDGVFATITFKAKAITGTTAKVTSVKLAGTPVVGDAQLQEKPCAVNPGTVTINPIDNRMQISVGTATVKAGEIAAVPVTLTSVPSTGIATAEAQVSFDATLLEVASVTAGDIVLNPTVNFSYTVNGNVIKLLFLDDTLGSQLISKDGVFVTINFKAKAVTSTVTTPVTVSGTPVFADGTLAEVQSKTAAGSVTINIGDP

B1: dockerin-fused chimeric beta-agarase AgaB (AgaB-Doc) (protein)
chain: GDNSKFDSATDLPVEQEQEQETEQEGEPEESSEQDLVEEVDWKDIPVPADAGPNMKWEFQEISDNFEYEAPADNKGSEFLEKWDDFYHNAWAGPGLTEWKRDRSYVADGELKMWATRKPGSDKINMGCITSKTRVVYPVYIEARAKVMNSTLASDVWLLSADDTQEIDILEAYGADYSESAGKDHSYFSKKVHISHHVFIRDPFQDYQPKDAGSWFEDGTVWNKEFHRFGVYWRDPWHLEYYIDGVLVRTVSGKDIIDPKHFTNTTDPGNTEIDTRTGLNKEMDIIINTEDQTWRSSPASGLQSNTYTPTDNELSNIENNTFGVDWIRIYKPVEKVNKDGKVNAIDYAVLKSILLGTNTNVDLSVSDMNKDGKVNALDLAVLKKMLLS
Regarding B1, the “degradation activity using purified agar as a substrate” value is “the degradation activity increased in the order of agarase, agarase-expansin, and agarase-expansin-mCbpA”.

The record behind these values is US20200190501.
